The target of the assay is CNOT1 (UniProt A5YKK6). Put plainly: co-IP with FLAG-tagged YTHDF2. Conditions: reference: wild type; sites S39.

Consider YTHDF2 (from UniProt Q9Y5A9) S39A, for which the “binding against the reference” value was “weaker”.

The values above are taken from paper PMC12612255.
